In US20140348747A1 (PROMEGA, published 2014):

T1: NLpoly 11S (12-A51T)
T1 construct: E. coli clarified lysate; also called 12S-51
T1 chain: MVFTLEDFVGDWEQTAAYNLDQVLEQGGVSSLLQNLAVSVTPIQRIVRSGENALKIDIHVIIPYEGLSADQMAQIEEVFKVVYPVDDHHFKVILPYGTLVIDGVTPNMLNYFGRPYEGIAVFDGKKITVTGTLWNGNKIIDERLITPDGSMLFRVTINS

B1: NLpep80 (peptide)
peptide: Ac-VSGWRLFKKISN-NH2
notes: synthetic peptide
B2: NLpep86 (peptide)
peptide: Ac-VSGWRLFKKIS-NH2
notes: synthetic peptide

What was measured:
NLpoly 11S (12-A51T) [1] = molecular target: T1, NLpoly 11S (12-A51T); experiment: luminescence complementation titration; one site-specific binding fit
NLpoly 11S (12-A51T) [2] = molecular target: T1, NLpoly 11S (12-A51T); experiment: luminescence complementation titration of synthetic NLpep on NLpoly E. coli lysate; one site-specific binding fit

Row | Binder | fold improved affinity over NLpolyWT:NLpepWT (NLpoly 11S (12-A51T) [1]) | Kd (NLpoly 11S (12-A51T) [2])
1 | B1 | 10000 fold | < 1 nM
2 | B2 | 10000 fold | < 1 nM
